Data from patent US20230340112A1 (published 2023).

Tests used:
mDC cell surface SIRPα [1] = target: T1, mDC cell surface SIRPα (human, UniProt P78324 31-504); assay: FACS binding; Donor #298
mDC cell surface SIRPα [2] = target: T1, mDC cell surface SIRPα; assay: FACS binding; Donor #296
cell-surface SIRPα (mDC) [3] = target: T2, cell-surface SIRPα (mDC) (human, UniProt P78324 31-504); assay: FACS blocking of CD47/SIRPα; Donor #296
cell-surface SIRPα (mDC) [4] = target: T2, cell-surface SIRPα (mDC); assay: FACS blocking of CD47/SIRPα; Donor #298

T1 sequence (P78324 31-504): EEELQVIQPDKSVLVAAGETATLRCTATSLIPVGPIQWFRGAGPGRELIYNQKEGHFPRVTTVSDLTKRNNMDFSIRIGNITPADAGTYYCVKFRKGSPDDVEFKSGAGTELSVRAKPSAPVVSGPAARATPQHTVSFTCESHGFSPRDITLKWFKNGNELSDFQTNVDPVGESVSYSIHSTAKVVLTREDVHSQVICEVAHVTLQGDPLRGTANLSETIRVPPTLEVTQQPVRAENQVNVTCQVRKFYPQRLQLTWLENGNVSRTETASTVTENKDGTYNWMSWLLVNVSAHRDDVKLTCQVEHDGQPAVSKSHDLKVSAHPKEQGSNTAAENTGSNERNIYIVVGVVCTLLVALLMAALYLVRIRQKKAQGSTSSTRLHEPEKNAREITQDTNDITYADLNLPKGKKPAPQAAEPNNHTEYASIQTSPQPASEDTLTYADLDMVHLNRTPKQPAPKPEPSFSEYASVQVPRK
T2 sequence (P78324 31-504): as above

B1: OSE-172 (antibody, V domains shown)
VH: EVQLVQSGAEVKKPGESLRISCKASGYSFTSYWVHWVRQMPGKGLEWMGNIDPSDSDTHYSPSFQGHVTLSVDKSISTAYLQLSSLKASDTAMYYCVRGGTGTLAYFAYWGQGTLVTVSS
VL: DVVMTQSPLSLPVTLGQPASISCRSSQSLVHSYGNTYLYWFQQRPGQSPRLLIYRVSNRFSGVPDRFSGSGSGTDFTLKISRVEAEDVGVYYCFQGTHVPYTFGGGTKVEIKR
- EC50 (mDC cell surface SIRPα [1]): 1.27 nM
- EC50 (mDC cell surface SIRPα [2]): 0.768 nM
- IC50 (cell-surface SIRPα (mDC) [3]): 1.25 nM
- IC50 (cell-surface SIRPα (mDC) [4]): 1.77 nM
